Consider three compounds from publication PMC7567106, “Generalized enzymatic mechanism of catalysis by tetrameric L-asparaginases from mesophilic bacteria” (Scientific Reports, 2020).

For experiment [1], the target named is L-glutaminase-asparaginase from Pseudomonas 7A, K173M variant (Pseudomonas 7A) (UniProt Q88K39). Briefly: crystal structure; co-crystallised with small ligands, hanging drop; protein 12.5-13.5 mg/ml in 50 mM HEPES pH 7.0, 200 mM NaCl; four protomers in the asymmetric unit as two intimate dimers (A,B) and (C,D).
Experiment [2] concerns the target L-glutaminase-asparaginase from Pseudomonas 7A, wild type (Pseudomonas 7A) (UniProt Q88K39). Described as above.
The target in experiment [3] is T1, EcAII (type II L-asparaginase from E. coli) (Escherichia coli, UniProt P00805).
T1 construct: gene ansB; periplasmic enzyme, homotetramer; preparation not described here
T1 sequence (P00805 23-348): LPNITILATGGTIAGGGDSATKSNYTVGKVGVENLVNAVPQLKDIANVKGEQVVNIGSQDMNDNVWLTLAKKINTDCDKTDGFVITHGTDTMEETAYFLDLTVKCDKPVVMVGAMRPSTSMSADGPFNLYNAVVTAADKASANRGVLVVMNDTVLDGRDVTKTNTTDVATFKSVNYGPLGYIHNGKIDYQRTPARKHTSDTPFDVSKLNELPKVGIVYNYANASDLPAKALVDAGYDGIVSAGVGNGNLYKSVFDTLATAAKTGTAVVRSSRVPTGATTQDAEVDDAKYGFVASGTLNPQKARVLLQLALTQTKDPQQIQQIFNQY
The experiment in a line: Q-TOF LC/MS of substrate, product and hydroxamate (data not shown). Type of experiment: biochemical. To be noted: 25 mM HEPES pH 7.7; 8 mM substrate, 27.8 nM enzyme, 0.4 M NH2OH.

As a reminder, the stoichiometry N is the number of molecules, sites or subunits per partner or assembly.

Take “L-glutaminase-asparaginase from Pseudomonas 7A, K173M variant (from UniProt Q88K39 26-362) (enzyme)”: in experiment [1], the stoichiometry N came to 4. Take “L-glutaminase-asparaginase from Pseudomonas 7A, wild type (from UniProt Q88K39 26-362) (enzyme)”: the stoichiometry N in experiment [2] came to 4.

Consider `NC(=O)C[C@H](N)C(=O)O` [L-Asn], for which the “Q-TOF LC/MS of substrate, product and hydroxamate (data not shown)” value in experiment [3] was “EcAII(wt) with L-Asn were monitored (not shown)”.
